This note sets out measurements from the supplement of paper PMC12042874.

± gives the uncertainty stated by the source.

The nature of the data set: amyloid nucleation score (Sup35N fusion, yeast selection) (log enrichment); library NNK1; higher = more nucleation; inactive = no reads after selection. The method in brief:
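The nucleation score is the log enrichment of output over input reads, calculated with DiMSum and centred on the mode score of non-aggregating sequences. Sequences with under 100 input reads were excluded. Reads came from Illumina sequencing of plasmid inserts from psi-negative yeast expressing Sup35N fused to peptides of 20 random codons, induced 24 hours with 100 μM copper sulfate and grown 7 days at 30°C without adenine and uracil.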
On to TACRLQYSNSYLFLSSAEPV, for which the amyloid nucleation score amounted to 1.28 ± 0.69.
For GGRKKQLLDNYKGTYLVARI, the amyloid nucleation score is -0.096 ± 1.1.
For LNGNLVTMEGVLINNSFRVT the value was 0.394 ± 0.24; for FYYYSEFLGPIVYPQHDLLL, -0.1 ± 1.1.
The result for ICILLFGVRSDCM reads 1.44 ± 0.37; that for RFTNIFAKNRLCRLDMRRNT, -0.211 ± 0.56.
Take QVCLNDRNSSYVMRDICVY: the amyloid nucleation score is -0.334 ± 1.2.
The result for YDDTTMYRFWLHFKM reads 0.638 ± 0.3; that for YRWLLNRKTSSMSVFCNSLF, “inactive”.
For IYRMRDNMNSRLRVYFNRVF the value was “inactive”; for SLYAQVCWRSVEFYPRLFPE, 2.26 ± 0.12.
For YWARRYLWAGFFI the value was -0.322 ± 1.1.
Consider RRCMLLYCGLGAGALGSDGR, for which the amyloid nucleation score is -0.539 ± 1.1.
With GKSRS, the amyloid nucleation score was 0.784 ± 0.49.
The result for CTVMDRLLTQEPTNRRWSRY reads 0.06 ± 0.84; that for VNVPHKTWIPDGDLRYYLTL, -0.891 ± 0.85; that for FSFSIAMVNLVEDATVDCAG, -0.048 ± 0.31.
On to TVGSIRRNHEVLWGTRILSG, for which the amyloid nucleation score was -1.69 ± 2.7.
The result for RAFNRIINHRTEGNNPYYFL reads “inactive”; that for WFSVMLRYEY, 1.71 ± 0.2.
The result for AFTPSWRTRLQMTTL reads -0.386 ± 0.57; that for VFYLCSLLCLIVKRLGQGDC, 0.484 ± 0.57.
For GNALYICRF the value was 0.572 ± 0.39; for GVLGTGMRNCA, 0.277 ± 0.88.
The substance SIFVG displayed an amyloid nucleation score of 0.353 ± 1.2.
For ISRSNTLYAIFCARPAKVSL the value was -0.235 ± 0.6; for LKYPMGFPDRSL, -0.658 ± 1.1; for RGGRRDWLCIFRGRLGVA, -1.08 ± 0.78.
For GRHRMVWGH the value was 0.345 ± 0.93; for LVHMIAYAVGNLMCIRPLLI, -0.467 ± 0.43; for GDVSRQTVEV, -0.094 ± 0.43.
For MFFLQCQMRLSLLVGNVLMR the value was -0.054 ± 0.56.
As for KGWLKTGVYGHVSFVGNIME, the amyloid nucleation score worked out at 0.467 ± 0.75.
For GYSAYRFGQCMSETGRRRIH the value was 1.42 ± 0.72; for IDMTQGMRLQWMFNRALLCW, 0.813 ± 0.72; for RSGGTSSTALQQQLRFNRTR, 0.581 ± 0.33.
For RSFSECLMSGHTIFQFGMYM the value was 4.26 ± 0.14; for LTHWTQHMF, -0.37 ± 0.87.
For DYPPIRALVSFDCCAVSTCL the value was 0.922 ± 0.93.
As for PNIEPCLSSFVSKSLDDPRT, the amyloid nucleation score is -0.127 ± 0.37.
For AASKIIENIGHLC, the amyloid nucleation score is -0.337 ± 0.52.
Substance INWRN displayed an amyloid nucleation score of -0.471 ± 0.34.
Consider FSNLKISWECNRCGSYYDCE, for which the amyloid nucleation score is -0.122 ± 1.4.
For VLINYLKMSDTCNFRLFLFK the value was 5.916 ± 0.055.
For LVYSFRKTFSC the value was 7.523 ± 0.047.
The result for LTNIYLVRMT reads 5.26 ± 0.071; that for TYCRQDRWVGSKKLSCTIDC, -0.025 ± 0.23.
In turn, TQFEFFWVPKRHSMVHNCMN returned an amyloid nucleation score of -0.337 ± 0.31.
LIELRIWLLHLPMYGVLESI gave an amyloid nucleation score of -0.758 ± 0.39.
On to TKTSTSFGRVKPVN, for which the amyloid nucleation score amounted to 0.793 ± 0.85.
Substance DGLTLFLSRNGDYYSFTKIT came in with an amyloid nucleation score of 0.197 ± 0.46.
For LSNFLHCG the value was 0.907 ± 0.4.
The result for ETHLIGVCYNRCL reads 0.643 ± 0.42.
For CGCCARWNYIIMMGWGGCVL the value was 0.096 ± 0.69.
LEYENCHCIILYLKHAQYLL: the amyloid nucleation score result was “inactive”.
For FGICKYFNRFVMNIRSVDES the value was -0.618 ± 0.52; for IFKGGFTWYCCDKARGLKGR, 0.411 ± 0.34; for LVRTIVLNKRIMWMIQLCFK, 0.86 ± 0.63.
On to AFEFKRLRIACVNDGQINLG, for which the amyloid nucleation score came out at 2.43 ± 0.42.
For YIVAVEHLLCSVRSYGHGMG the value was 0.724 ± 0.83; for FVAISVSTIRQCGVCRGGTC, 4.29 ± 0.12.
In turn, CCGCWYIITKPYSNKVRKCA showed an amyloid nucleation score of 0.265 ± 0.73.
In the case of NDGVNPYNMACKMLSCYNSA, the amyloid nucleation score was determined as 1.14 ± 0.97.
For SLWFTYCQ the value was 0.751 ± 0.38.
For TDLKLWH the value was 0.136 ± 1.2; for SHPRTYPWDSTDFVWLS, -0.549 ± 1.2.
As to EQRVNLISVWIRGDLETPHG, the amyloid nucleation score is 0.47 ± 0.73.
The result for NRDQRKGIVFTWAVVEPKLP reads 0.413 ± 0.97.
The result for CICLDTSGSVLYSLCTDCGL reads 0.871 ± 0.69; that for QHVMPWPWWMGLSSLDRWYL, 1.44 ± 0.49.
The result for GYMSKLEYLPTQLYLLSLRE reads 0.85 ± 0.44; that for TVVESRTPILVYFMGCRVTY, 3.31 ± 0.11; that for RINQVTGVVQLVFRCRNSRL, 7.643 ± 0.047.
The substance MRTLWVSKSGIRG gave an amyloid nucleation score of -0.15 ± 0.72.
For PHYRTSFVKHPLL the value was 0.73 ± 0.54; for FPLAIVLIVN, 0.059 ± 0.39.
As to LVYPYESLFHFESGASH, the amyloid nucleation score amounted to 0.32 ± 0.21.
The result for EGIIYS reads -0.692 ± 1.1.
For DFLKGLFIRFRKSNFE the value was -1.11 ± 1.7; for VWFPKTDTGVTS, 0.428 ± 0.34; for KFRESFLT, -1.32 ± 0.94.
For YSGVPLARQCGADGLKGTGE the value was 0.724 ± 1.2; for IVVGRGKQAIASMG, -0.432 ± 0.89; for RMYYT, -1.52 ± 0.82.
For the substance LFLGLPELVQNSLDMLVSLW, the amyloid nucleation score amounted to 0.217 ± 0.31.
In turn, RWIFSSWLLDGILGERCQTV showed an amyloid nucleation score of -0.484 ± 1.1.
The result for RSTSF reads “inactive”; that for RLVTYPSVLSSVSEGSGRGG, 1.05 ± 0.66; that for RRLPA, -0.091 ± 0.9.
For the substance WHKLRPFEGAIKMFSAWISL, the amyloid nucleation score result was “inactive”.
Substance SYSGTVCNRLRLVLVVDD yielded an amyloid nucleation score of -0.098 ± 0.47.
The result for NNVLCSGKMGRLCVGCIMPC reads -0.507 ± 1.5.
For LLFSKRVLVSWGFDRGGSEE the value was 0.336 ± 0.57; for LRALSYWIPARTPIVEGYAK, -0.333 ± 0.32.
The result for GHFRSASRKYALTV reads -0.619 ± 0.51; that for RTSPSYGIPNWAELLRVE, -0.311 ± 0.69; that for IYQQIYN, -0.807 ± 2.4.
Substance FVKVAPANKGISGKRDLCKL displayed an amyloid nucleation score of 0.215 ± 0.3.
SYGNVLVGHGV: the amyloid nucleation score is -0.044 ± 0.61.
LEWANDLVNCSQRIM showed an amyloid nucleation score of -0.331 ± 0.88.
For EWACFRGAYPAYSDLFR the value was -0.327 ± 0.67; for EHSFRNRCEAANWLVWLRVI, -0.061 ± 0.51; for SCWPCQ, -1.09 ± 2.4.
With SYNMTITACSNGFPEQRDT, the amyloid nucleation score is 0.062 ± 0.73.
For LVLVRFITPVDLAVMNGRLW the value was -0.927 ± 0.34; for GSIIMWHYGYYHGCNFYCCH, 6.98 ± 0.07.
In turn, NNTFGLGNFTDSFCNIRSEK displayed an amyloid nucleation score of 0.572 ± 0.39.
In turn, LYLEGINVFSVMLHEVLHTG showed an amyloid nucleation score of -0.052 ± 0.43.
Turning to RSCITESRRHIWRTGMVEKW, the amyloid nucleation score was 0.716 ± 0.48.
Turning to VCYLGECRGHAIMEYWWSWR, the amyloid nucleation score turned out to be 2.4 ± 0.24.
For LAWYFTPFVDHS the value was 1.13 ± 0.84; for NLLQLYDICAGCVRYSRWDG, 1.53 ± 0.16; for YIPICIRSYIKNAS, 0.413 ± 1.2.
Substance ISHSIAVRNNLLLFGPCQNR came in with an amyloid nucleation score of 2.12 ± 0.12.
The result for SGLLS reads -1.12 ± 0.65.
The result for IPGTPMT reads “inactive”; that for RVYMFLARFGRESGWSVRQW, 0.169 ± 1.
Take YDLLSLGDTTCRHSEILNRP: the amyloid nucleation score turned out to be 0.924 ± 0.63.
Consider HSDCRFRKLGRTHTSMRVCC, for which the amyloid nucleation score came out at 0.096 ± 0.49.
For VLVLNLSLPKSLSNPSMRFG the value was 8.028 ± 0.046.
As for DCHVRCLRQV, the amyloid nucleation score came to 0.611 ± 0.35.
The result for VIFDNGRLIEHCYERLTRPW reads -0.327 ± 0.61; that for KAPKYRDRRVGVNVKYWYMP, 0.058 ± 0.66; that for LCQSYGCFVPYYLYDFHRVV, 6.521 ± 0.059.
KSRFSDGGSSWFCGTFMFYT returned an amyloid nucleation score of -0.723 ± 0.42.
For MFMSWVDFNLD the value was 0.066 ± 0.29.
The result for EGMYC reads 0.058 ± 0.34; that for SLFATGN, “inactive”.
With FSFYMLRFFSKTSYYSLMSF, the amyloid nucleation score is -0.721 ± 0.27.
Turning to TVVHINHHFRGTFISMAKSR, the amyloid nucleation score was -1.58 ± 2.1.
With QNMWIHCWCGRGGMMTREPG, the amyloid nucleation score was found to be 4.73 ± 0.052.
For EDPVLSREGCKQVNPWILWG the value was 0.201 ± 1.4.
In turn, ILVTLHMTCLRRSRNTLSFY gave an amyloid nucleation score of -0.45 ± 1.5.
Turning to RYVSLDRPYTSNNNRYAKGV, the amyloid nucleation score stood at 0.475 ± 0.22.
Regarding ASFSNCWG, the amyloid nucleation score was determined as 0.486 ± 0.32.
GRSAVAFISPPLSLRIAQCP: the amyloid nucleation score turned out to be 0.252 ± 0.28.
For RLEADYLTVIESVGHSATGS the value was “inactive”; for DYSSSFVNCIYKKPGQGMFG, 0.133 ± 0.54.
The result for NLLLYVYKKLCFGFVKECII reads -0.953 ± 0.57.
For FWSHHPHTNENMCTYTNLSW the value was “inactive”.
